The results in this text go back to publication PMC2824085, “Identification of Novel Contributions to High-affinity Glycoprotein–Receptor Interactions using Engineered Ligands” (Journal of Molecular Biology, 2010).

Data set [1] concerns the molecule itself. Nature of the data set: cross-linking + SEC; chemical crosslinking and gel filtration of the extracellular domain of MGL expressed in bacteria. Background: Size exclusion chromatography separates by hydrodynamic size, large species first.
The target of data set [2] is T1, soybean agglutinin (soybean, UniProt P05046 33-285, a single, uniform Man9GlcNAc2 oligosaccharide on each subunit).
T1 construct: also called SBA; intact soybean agglutinin
T1 sequence (P05046 33-285): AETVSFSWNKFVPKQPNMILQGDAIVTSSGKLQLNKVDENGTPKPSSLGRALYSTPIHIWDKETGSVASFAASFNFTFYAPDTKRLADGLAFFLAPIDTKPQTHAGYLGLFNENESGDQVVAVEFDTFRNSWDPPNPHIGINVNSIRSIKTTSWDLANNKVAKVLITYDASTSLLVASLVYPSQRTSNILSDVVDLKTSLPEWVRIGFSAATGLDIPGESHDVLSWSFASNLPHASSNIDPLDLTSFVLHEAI
Nature of the data set: SPR; BiaCore 3000, CM5 chip; SBA or its glycopeptide amine-coupled, monomeric CRD of DC-SIGN flowed over; steady state, simple saturation model with linear background; 10 mM Hepes, 150 mM NaCl, 5 mM CaCl2, 0.005% P20, pH 7.4, 25 °C. As to conditions: both partners purified. A general note: SPR reads the build-up and loss of mass on a sensor chip optically.

B1: trimeric extracellular domain (ECD) of rat macrophage galactose lectin (MGL) (domain or fragment)
chain: AQNSQLRRDLETLRTTLDNTTSNTKAELQALASRGDSLQTGINSLKVEVDDHGQELQAGRGLSQKVASLESTVEKKEQTLRTDLSEITDRVQQLGKDLKTLTCQLASLKNNGSAVACCPLHWMEHEGSCYWFSQSGKPWPEADKYCQLENSNLVVVNSLAEQNFLQTHMGSVVTWIGLTDQNGPWRWVDGTDYEKGFTHWAPKQPDNWYGHGLGGGEDCAHFTSDGRWNDDVCQRPYRWVCEMKLAKDS
notes: extra alanine residue appended at the N-terminus; rat macrophage galactose lectin, extracellular domain from residue 59 to the C-terminus; also called extracellular domain of MGL; source: expressed in bacteria, T7 promoter system
For B1, in data set [1], the stoichiometry N (usually the number of molecules, sites or subunits per partner or assembly) stood at 3.

B2: monomeric carbohydrate-recognition domain (CRD) from DC-SIGN (domain or fragment, UniProt Q9NNX6 250-404, looked up)
chain: ERLCHPCPWEWTFFQGNCYFMSNSQRNWHDSITACKEVGAQLVVIKSAEEQNFLQLQSSRSNRFTWMGLSDLNQEGTWQWVDGSPLLPSFKQYWNRGEPNNVGEEDCAEFSGNGWNDDKCNLAKFWICKKSAASCSRDEEQFLSPAPATPNPPPA
notes: DC-SIGN, carbohydrate-recognition domain; it calls the CRD monomeric; also called monomeric CRD; dendritic cell-specific intercellular adhesion molecule 3-grabbing nonintegrin CRD
For the molecule B2, the Kd (in general, the equilibrium constant for the complex coming apart) in data set [2] was 4 µM.
